In patent US6645501B2, “Anti-pathogen system and methods of use thereof” (Washington University, priority 1997, dated 2003):
Entries after “also recorded” stand apart in the source; their conditions may differ.

How the values were obtained:
[1] = system: caspase-3 activity (DEVD-AFC cleavage); assay: Caspase-3 enzyme assay, cleavage of DEVD-AFC by whole cell lysate of transduced Jurkat T cells; format: cell-based; conditions: 6 hr
Experimental: (§1) Additionally, transduced cultures were tested for degraded genomic DNA by TUNEL assay. See Coates, P. J., Molecular methods for the identification of apoptosis in tissues. J. Histotechnology 17: 261 (1994). […] Activation of TAT-Casp3 was also assayed by its ability to cleave an artificial Caspase-3 substrate. […] See Xiang, J., et al., Bax-induced cell death may not require interleukin 1B-converting enzyme-like proteases. Proc. Natl. Acad. Sci. USA 93: 14550 (1996).
(§2) The HIV Protease activates TAT-Casp3WT protein shown in FIGS. 12A-B are explained in more detail as follows. FIG. 12A. […] Abscissa: TUNEL positive cells per high-powered microscopic field; Ctrl, control addition of PBS to cultures; error bars represent SD. FIG. 12B. […] Ctrl, control PBS addition; ocFAS crosslinking, positive control.
(§3) 1. […] See Lissy, N. A., et al. (supra). […] See Ezhevsky, S. A., et al. (supra). […] See Xiang, J., et al., (supra). […] See Xiang, J., et al., (supra). […] See Ezhevsky, S. A., et al. (supra).

[2] = system: Jurkat T cells; assay: Cytotoxicity of TAT-Casp3 on uninfected Jurkat T cells, viability by Trypan Blue exclusion; conditions: co-transduced with TAT-HIV Pr
Experimental: In addition, the ability of TAT-Casp3 protein to induce apoptosis in cells co-transduced with TAT-HIV Pr protein was tested. Jurkat T cells were treated with 100 nM TAT-Casp3WT or TATCasp3MUT proteins alone or in combination with 50 nM TAT-HIV Pr protein and assayed for cell viability 16 hr post-treatment (FIG. 11A). […] See Salvensen, G. S., et al., Henkart, P. A., Cohen, G. M., Woo, M., et al., Enari, M. et al., Liu, X., et al. (supra).
FIG. 11A Cultures of Jurkat T cells were transduced with combinations of TAT-Casp3WT (WT), TAT-Casp3MUT (MUT) and TAT-HIV Protease (Pr) proteins for 16 hr and analyzed for cell viability. […] FIG. 11B Cultures of Jurkat T cells were co-transduced with TAT-Casp3WT (WT), TAT-Casp3MUT (MUT) proteins in combination with TAT-HIV Pr (Pr) protein and analyzed for kinetics of cell viability as indicated.
1. Cell culture-p16(−) Jurkat T cells (ATCC) were grown as described. See Lissy, N. A., et al. (supra). For in vivo substrate cleavage, 1×10^6 cells were transduced with 100 nM TAT-p16, TAT-A-p16, TAT-Casp3MUT and/or 50 nM TAT-HIV Pr proteins for 1, 5 or 8 hr as indicated and analyzed by anti-p16 (Santa Cruz) or anti-Casp3 (Pharmingen) immunoblot analysis. See Ezhevsky, S. A., et al. (supra). For cytotoxicity of TAT-Casp3 on uninfected cells, 1×10^6 cells were transduced with 100 nM TAT-Casp3WT, TAT-Casp3MUT and/or 50 nM TAT-HIV Pr proteins for 16 hr and assayed for viability by Trypan Blue exclusion and/or genomic DNA damage by TUNEL assay (Trevigen). Number of TUNEL positive cells reported as per high-powered microscopic field with four fields per experiment averaged. TAT-Casp3 activity was measured by incubation of 20 μg of whole cell lysate with 50 μM DEVD-AFC and fluorescent AFC formation measured on a FL500 microplate fluorescence reader (Bio-Tek) as described. See Xiang, J., et al., (supra). Cells were preincubated with 1 μg/ml Ritonavir (Abbott Labs) for 1 hr prior to transduction. For cytotoxicity of TAT-Casp3 on infected cells, Jurkat cultures were infected with 100 ng p24 Ag equivalent NLHX HIV-I strain for 7-14 days, assayed microscopically for cytopathic effects, then replated at 1×10^6/ml and transduced with 100 nM of TAT-Casp3WT or TAT-Casp3MUT proteins for 16 hr followed by exclusionary dye viability analysis. Infected cells were pretreated with 1 μg/ml Ritonavir for 24 hr prior to transduction with TAT-Casp3WT protein. See Xiang, J., et al., (supra). For Flow Cytometry (FACS) analysis, fluorescein (FITC) conjugated TAT fusion proteins were added to Jurkat T cell culture media and 1×10^4 cells were analyzed by FACS as described. See Ezhevsky, S. A., et al. (supra).

[3] = system: Jurkat T cells; assay: TUNEL assay for degraded genomic DNA in transduced Jurkat T cells; format: cell-based
Experimental: as §1, §2, §3

[4] = system: Jurkat T cells infected with the NLHX strain of HIV-I; assay: Cytotoxicity of TAT-Casp3 on HIV infected Jurkat cultures, exclusionary dye viability analysis; format: cell-based
Description: To make this determination, Jurkat T cells were infected for 7-14 days with the NLHX strain of HIV-I and examined microscopically for HIV cytopathic effects. See Westervelt, P., et al., Identification of a determinant within the HIV-1 surface envelope glycoprotein critical for productive infection of cultured primary monocytes. Proc. Natl. Acad. Sci USA 88: 3097 (1991). At the start of each transduction experiment approximately 50% of the culture was HIV positive. HIV infected cultures were transduced for 16 hr with 100 nM TAT-Casp3WT or TATCasp3MUT protein and then assayed for cell viability (FIG. 13). […] In addition, we detected both the appearance of cells containing <2N DNA content and cells with condensed nuclei in TAT-Casp3 treated cells.
To determine if TAT-Casp3WT induced apoptosis was dependent on active HIV Protease in the infected cultures, HIV infected cultures were pretreated with 1 μg/ml Ritonavir prior to transduction with 100 nM TAT-Casp3WT protein (FIG. 5). […] In addition, the observed increased survival of Ritonavir treated cells is consistent with increased longevity of protease inhibitor treated HIV infected cells. See Coffin, J. M., et al. (supra).
The specific killing of HIV infected cells shown in FIG. 5 is explained in more detail as follows. Jurkat T cells were infected for 7-14 days with HIV strain NLHX, then transduced with TAT-Casp3WT (WT) or TAT-Casp3MUT (MUT) proteins for 16 hr and assayed for cell viability. […] Ctrl, control addition of PBS to cultures; abscissa, % viability of HIV positive cells in the population at start of transduction; error bars represent SD.
as §3

[5] = system: Jurkat T cells; assay: FACS and confocal analysis of FITC-labeled TAT fusion proteins added to Jurkat T cells; format: cell-based; conditions: for cells transduced: FITC-labeled protein added to media of Jurkat T cells
Experimental: To test the ability of TAT-Casp3 proteins to transduce into cells, TAT-Casp3 proteins were conjugated to fluorescein (FITC), then added directly to the media of Jurkat T cells and analyzed by Flow Cytometry (FACS) (FIGS. 9B-C). Both TAT-Casp3WT and TAT-Casp3MUT proteins rancidly transduced into ˜100% of cells, achieving maximum intracellular concentration in less than 20 min. In addition, based on the narrow peak width before and after addition of FITC labeled proteins, individual cells within the population contain near identical intracellular concentrations of TAT-Casp3-FITC protein. […] Thus, TAT-Casp3 proteins readily transduce into 100% of all cells inca rapid and concentration-dependent fashion.
The generation and transduction of TAT fusion proteins shown in FIGS. 9A-E are explained in more detail as follows: FIG. 9A. Diagram depicting HIV cleavage site sequences and domains of TAT fusion proteins. FIGS. 9B-D. FACS kinetic analysis of fluorescein (FITC) labeled TAT-Casp3WT, TAT-Casp3MUT and TAT-HIV Pr proteins added to cells at 0, 20 and 30 min. FIG. 9E. FACS dose analysis of 3, 6, and 12 nM TAT-Casp3WT-FITC protein added to cells at I hr post-addition. Note rapid, concentration-dependent transduction of all FITC labeled protein into ˜100% of cells and near identical intracellular concentration within the population as measured by FACS peak width of control vs. transduced cells.
as §3

[6] = system: Jurkat T-cells infected by HIV; assay: Cleavage of transduced p16 fusion proteins in HIV-infected Jurkat T-cells, Western/immunoblot with anti-p16 antibody; format: cell-based; conditions: after 4, 8 and 12 hours
Experimental: Purified p16 fusion proteins were individually transduced into Jurkat T-cells infected by HIV. Methods for infecting the Jurkat T-cells with HIV and transducing fusion proteins are described in examples, which follow. After 4, 8 and 12 hours, the cells are analyzed for cleavage of the fusion protein by Western/immunoblot analysis using a commercially available anti-P16 antibody (Santa Cruz). As a control, the p16 cDNA was fused to the pTAT vector described in Example 1 to produce the vector shown in FIG. 3D (no HIV protease cleavage site). That vector encoded a p16 fusion protein fused to TAT that was not cleaved in the infected cells.

[7] = target: T1, HIV Protease (Human immunodeficiency virus type 1 group M subtype B, UniProt P04585); assay: In vivo substrate cleavage by co-transduced TAT-HIV Pr in Jurkat T cells, immunoblot; format: cell-based; conditions: 100 nM substrate, 50 nM TAT-HIV Pr, Jurkat T cells, immunoblot
T1 construct: PCR cloning the HIV Protease gene from HXB2R HIV strain; 6xHis (from the pTAT vector) (N); made in house; the purified protein was added to Jurkat T cells
Experimental: To assay for in vivo cleavage, p 16(−) Jurkat T cells were transduced with 100 nM TAT-Ap16 or control TAT-p16 protein (no HIV cleavage site) alone or in combination with 50 nM TATHIV Pr fusion protein for 5 hr and analyzed by anti-p16 immunoblot for in vivo cleavage at the HIV A proteolytic cleavage site (FIG. 10A). […] Size analysis of the cleaved TAT-A-p 16 protein was consistent with retention of the residual HIV half site present on the N′ terminus of p 16 (FIG. 10A, see lane 4 vs. 5).
Further, the TAT-Casp3MUT protein was transduced in combination with TAT-HIV Pr protein into cells (FIG. 10B).
The in vivo processing in co-transduced cells shown in FIGS. 10A and 10B is explained in more detail as follows. FIG. 10A. Cultures of p16(−) Jurkat T cells were transduced with TAT-p 16 or TAT-A-p 16 substrate proteins in combination with TATHIV Pr proteins for 5 hr and subjected to anti-p 16 immunoblot analysis. […] WCE, HepG2 whole cell lysate containing wild type endogenous p16; A-p16, cleaved TAT-A-16 product retaining the HIV half site on p16. FIG. 10B. Cultures of Jurkat T cells were transduced with TATCasp3MUT protein (TAT-“D” site-p 17 domain-“A” site-p12 domain) alone or in combination with TAT-HIV Pr (Pr) protein as indicated and immunoblotted with anti-Caspase-3 antibodies specific for the p17 domain. TAT-D-p17-A, cleaved product of TAT-Casp3 containing the N′ terminal HIV A half site.
as §3

B1: TAT-Casp3WT: TAT-D site-p17-A site-p12 modified Caspase-3 fusion protein, Pro domain replaced by TAT transduction domain (protein)
chain: GRKKRRQRRRGYPYDVPDYACTERQANFLGKIWPGISLDNSYKMDYPEMGLCIIINNKNFHKSTGMTSRSGTDVDAANLRETFRNLKYEVRNKNDLTREEIVELMRDVSKEDHSKRSSFVCVLLSHGEEGIIFGTNGPVDLKKITNFFRGDRCRSLTGKPKLFIIQACRGTELDCGIETSQVSQNYPIVQNLQGVDDDMACHKIPVEADFLYAYSTAPGYYSWRNSKDGSWFIQSLCAMLKQYADKLEFMHILTRVNRKVATEFESFSFDATFHAKKQIPCIVSMLTKELYFYH
modifications: left off: small tags and cut ends
notes: TAT-D site-p17-A site-p12 modified Caspase-3 fusion protein, Pro domain replaced by TAT transduction domain
caspase activity, co-transduced with TAT-HIV Pr ([1]; 100 nM plus 50 nM TAT-HIV Pr): marked increase in caspase activity that was greater than αFAS treatment; also recorded: specific activation of caspase-3 activity
caspase activity, protein transduced alone [1]: only background levels
appearance of cells containing <2N DNA content [2]: detected
earliest detection of cellular death post-transduction [2]: 4 h
kinetic analysis of cell death (shape of curve) [2]: linear killing curve
TUNEL positive cells, protein transduced alone ([3]; 100 nM TAT-Casp3 or 50 nM TAT-HIV Pr): only background levels; also recorded: remained at background levels
TUNEL positive cells, co-transduced with TAT-HIV Pr ([3]; 100 nM plus 50 nM TAT-HIV Pr): marked increase; also recorded: specific TUNEL positive cells
effect on viability of HIV positive cells ([4]; 100 nM, 16 hr, cultures approximately 50% HIV positive): dramatic loss of HIV positive cells; also recorded: efficiently kills a large percentage of HIV positive cells
appearance of cells containing <2N DNA content and cells with condensed nuclei ([4]; HIV infected cultures): detected
dose analysis of protein transduction ([5]; 3, 6 and 12 nM, 1 hr post-addition, at equilibrium): concentration-dependency
intracellular localisation by confocal microscopy ([5]; FITC-labeled protein): both cytoplasmic and nuclear compartments
cells transduced [5]: ~100%

B2: TAT-p16: control TAT-p16 fusion protein with no HIV cleavage site (protein)
chain: GRKKRRQRRRGMEPAAGSSMEPSADWLATAAARGRVEEVRALLEAGALPNAPNSYGRRPIQVMMMGSARVAELLLLHGAEPNCADPATLTRPVHDAAREGFLDTLVVLHRAGARLDVRDAWGRLPVDLAEELGHRDVARYLRAAAGGTRGSNHARIDAAEGPSDIPD
modifications: left off: small tags and cut ends
notes: control TAT-p16 fusion protein with no HIV cleavage site
cleavage of the fusion protein in HIV-infected cells [6]: not cleaved
cleavage at the HIV cleavage site when co-transduced with TAT-HIV Pr [7]: not cleaved
cells transduced [5]: 100%
